Experiment: soluble fraction after stress (log2 fold change); higher = more stays soluble; pooled small domains, quantitative proteomics
Settings: stress: 75 degC
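Also: 20 min heating vs room temperature control held 20 min.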

HMTEELQDMESRIIEAAKRVFVRKGYEATKMSDIALEVGLGRTALHYYFRTKEMLFDAIFGRLMGV
soluble fraction (log2): -0.702

HMTEEPISDGIKKLVEEWENIEGNLIMIFHGIQKHYGYVPRNVAKYVSEAIDVPLTRIYEILTFYNYFTM
soluble fraction (log2): 0.261

HMTEEYAVLWRVARQTLKPEAFDVLWMKYREQLSIAEIAGIMNRSETSVKVMLHRARKNLGTALESS
soluble fraction (log2): -1.75

HMTEKIEWYKEVLELEPNSKVFFPLARMLAEEQRFDEAVAVLEHGLERHGEFLEARLFFIELLHET
soluble fraction (log2): -3.16

HMTEKQYIYSIGDRVNIGTDEFEIVNINEKEVSIADVTFPMLVKQISYEEFDRKVKENPFNDHLII
soluble fraction (log2): -0.112

HMTEKSTRSVPQEHEGKRLDVAAALLFPVYSRSELARRIDAGYLLLNGKGSTPKTKVHELDLIELLEV
soluble fraction (log2): -0.601

HMTELKKTAVDTWVKDLGTEQALAKLDTLAVVKLRRLAREYKAFGIAGRAISKADKGMLLAEFRAYYEN
soluble fraction (log2): -2.08

HMTETSKLTDAKQLLESILSSGEVSYKDIISAAEEYEIGKRTLMSAKALLSIESIKKTDGWYWTLPH
soluble fraction (log2): -0.368

HMTEVPSLSSLKIGDLIFYRNNKGAIAHSAIITSFYNGRPFISQHTFNALNITYVKDWASKMHFIKIW
soluble fraction (log2): 0.0528

HMTEWDDATVKDAVEYFMSVNGRVPTVTDFKKENGLPSHPVIKQRYKINLHEWLNKNFPTYY
soluble fraction (log2): -1.3

HMTFEPVYDENSRILILGTFPSVKSREQQFYYGHPQNRFWKLLAALTGWKVPKTISEKKELLLQNGIA
soluble fraction (log2): -0.208

HMTFFDDLLYQAKAAVDNDPSIKPSLHNRAIIEILYQQGVFNMKNAVEHVAELLEISKNTVYLHLRSVKG
soluble fraction (log2): -1.06

HMTFGEMLQYTNRLKEILESNAPQSIKDRRLANLMTDLEQAYGIPILRDQEFEKENPFLMQLYRTIS
soluble fraction (log2): -2.4

HMTFKDIMENYTISRIENTINSAVVFLDEINAYITIDKTQLPSNLRYDTDSKIMASQIPDDAKIKYFMIYW
soluble fraction (log2): -2.12

HMTFPIDINRADTEQLTALPGIGEVLAKRIIAYREENGSFLSTDELKNVEGIGEKRLEAIVDLITIG
soluble fraction (log2): 0.145

HMTFSDKIRELRKQKGVSQAVVAEYLGITKQAYSLYETGKREPDFDSLLKLAEYFGTDTDSLLY
soluble fraction (log2): -1.52

HMTGEEVLIMLGEKMKLIRNYNGYSQRQIAEILKIERSTYASYETGRNRPDIFAVQRFAKIFNVSVDYIL
soluble fraction (log2): -0.244

HMTGELEVTAAGLSPEKLLNLAAKNHITLSNVKRLSYTQLSFRIGPADYNRLKKLLPEGRYKLNVGSS
soluble fraction (log2): -2.28

HMTGESIPFSKFLSEVDSGRVINVEIQGNNISGLLSDGNKFKTYSPNYPNLVEILSEKEVSIVATPLE
soluble fraction (log2): 0.0122

HMTGGLTQEQISQLRMLTPQQIEQLRQLQPQQVEMLRQLRPEQVMLLTQLEPQQIMAFMRLEPSVIMQL
soluble fraction (log2): -0.261

HMTGGMVTYIIEKGEGFFSLERKFGLSENELIKLNPSLKSGLKSEMQINIPKENYDRYVASS
soluble fraction (log2): -0.45

HMTGIESVKPSSDFTVEGNRIVAGDAEVEVYDLAGRKVNNNNLTTGVYIAKIAGSAESVKVFV
soluble fraction (log2): 0.144

HMTGIQDVPALETRRVGNTFFFDRATDVQVYDLQGRLLQQARKVTSVSIGHLQQGVYVLTDGRASVKVQ
soluble fraction (log2): -1.51

HMTGIQLNDRERAILQHLSDGLTTKAIAERIFLREDTVKWYRKNLLARFEQPIVAALVKWAVLEGLV
soluble fraction (log2): 0.0483

HMTGIVVVDVVGQVGRPGLVSLPAGSRVADAITAAGGATPEADVSLLNQARLVIDGEQIRVPRPGEVIAA
soluble fraction (log2): -0.0555

HMTGKVSHGERKSVLVSLAGSMRARGMSIDAVRAGLYADNEKRFDPPLDERDIEDVLNSAKKWGDP
soluble fraction (log2): -0.352

HMTGMDALIGRRVFVSEEILPGDAGGRVAVDGDSWRAISVGTAKPIPAGTEVRIHGYKSLILEVEPI
soluble fraction (log2): -0.788

HMTGQHFDLEDTDGNLVYEIDSTVPLKTFYIYDAMHTEIFRMTKELLHALPTYRFYLYGEPYGVLKKQ
soluble fraction (log2): -0.192

HMTGRVKWYDATKGFGFVTSDEGGDVFLPKGALPAGVADLKTGQRIEFGVVDSRKGAQALGVK
soluble fraction (log2): 0.352

HMTGSAETRGITLTDEQVTVWAKDGSWANYVYRATDGNWYDGSGRLYYENGGGEWTQAATGEQGS
soluble fraction (log2): 0.126

HMTGSALDATIEKLLDLGSKAGSVTEDEIQIVLKNVDVTDAQLSSIYQFLRDRGVEIVSATEDDD
soluble fraction (log2): 0.371

HMTGVPYLVRVKITDLHIRSGPGTNYASKGFIAPGAYTIVEESTGQGAALWGKLKSGKGWIALGYTEK
soluble fraction (log2): -2.13

HMTHAISKTYAVTGEQLKNGFTLTHTFANGSTRRVDVYPGSRSGKVIAVRNTTDDTTEWIRIVEG
soluble fraction (log2): -0.2

HMTHSEYVGRHGIAATSLRPAGAATIDGSRVDVVTSGEYIEKGTPIEVMTVNGSTVRVKAVPQIP
soluble fraction (log2): 0.203

HMTIDANAIEKMVLDLIGEHPNEWGRYRDGDKKVQGFFVGQIMKATSGQADGKIVNQILSQHAEA
soluble fraction (log2): -0.0337

HMTIELAEGQHFLQISKSGAPMGNVVRDLIIQTLKITNGNQIKAAKILGISRAKLRYRIEQLGINITGKNI
soluble fraction (log2): -2.81

HMTIERVKIKETPTGWLRVRETPDNNGSEIGRANVGEIYELLGSKGEWYHIVYKGKQGFISTKYAEKVL
soluble fraction (log2): -0.999

HMTIGEALLNLRKQLGLNQTEMAANVVSTSFYSKVERNIHDIGTKDLLQILNKHQINATYFFENLN
soluble fraction (log2): -1.82

HMTIHVMEIKSLLPIKILDESQHLVQSFSSKNPTSYNYRLIFSDKSKLENIKKTINENKDVESIEIRYA
soluble fraction (log2): -0.885

HMTILTSSQRKALISKMIRQGGVESQSHLVKLLAREGVKVTQATASRDLEDLGATRVRDANGEFQYVIP
soluble fraction (log2): -1.16

HMTINQIDPASGRKVGYWIITGEMKPKEGFSPDNKIEEGIYVNSRKSGKWIKYWPNGNVRSEIIYKNGR
soluble fraction (log2): -0.677

HMTITPEVIVNHFKNLDLFFTKNGNYYEFKKKGTENILFKYGIYKQKPNIFVKIQRYPISSLSDLERIPI
soluble fraction (log2): -1.53

HMTIYLSENIKRLRLEKELTQETLSEFLGVTSQSVSNWERGESYPDITMLPEIADFFKVSVDELLGVNRAE
soluble fraction (log2): -2.26

HMTIYPFNPNYLKDYQAYRVGLSLKEIDALLDFRSSGQWINSAEDFQRITGVSDSVLEQLIPYFKFS
soluble fraction (log2): -2.98

HMTKASYKITTPSGVNVREGAGKRYAVRKAYPKGKTVTVTQTKEVNGNLWGKTSDGWFAIKYQGAVYASA
soluble fraction (log2): -1.39

HMTKDEFLTTLRTLIQDMPPEDRRDVMNYYTEYFEDAGPEREQEVLRQLGSPEQVAREVLGG
soluble fraction (log2): -0.0428

HMTKDVIEIVDGNKFVFHKTIATDSVSSVINKYHISEADFRTWNELTGDMKVGEEYIVQLSLH
soluble fraction (log2): -0.87

HMTKKFQIQTLDKLNVRKVADWNASAVTTVKKGQILDVVAEVSPKNGSTKMYKLESGLYITASEKYVKKQG
soluble fraction (log2): -1.65

HMTKLPLLVELSRIIPTDTWVKKIKFSLGSVEFVGISKSASRLLPIVENSSYFHDTKFIGTIVT
soluble fraction (log2): -0.547

HMTKNIIVTTSVKTSDELVEVAKNHALNLELDFNYRNKKTIKELLSSFDGLVVIYKNKISYFEDNSELF
soluble fraction (log2): 0.335

HMTKQDYLTALQQELNKNAVADAEDIVSEYEQHFQFKLADGFTEEEIAAKLGAPAQIALQFAG
soluble fraction (log2): 0.826

HMTKQRSIILDLLKANQDRHLTAEEMLELLNQNHTPVSKATLYRYLDMLVSQNAVRKFIIDDQPSAGYQYL
soluble fraction (log2): -2

HMTKSTSMDLGGFMIVEGSETVRLGGQILQKDVDYTIDYFSGKINFISEEALNPGAEISVSYEENQ
soluble fraction (log2): -0.225

HMTKTEFLEALRRALNGNMAAASVEDNLKFYENYFYSEEAKGRSEAAVLSELGDPRILARTLIDAAER
soluble fraction (log2): 0.154

HMTKTEFLNLLEQRLFVLNDNERADLLSEYKQHIEMKIQSGLSEEEAIADFGDPEELIKELLEAY
soluble fraction (log2): -0.956

HMTKTFDSPEDADNDVLAKTLFQIFGVQSVYLKENFVTITKSNSVGWHTLMEKTGHTLEEHLKF
soluble fraction (log2): 0.0905

HMTKTKFLSKDMILSAMSRTKSNRAAARYLSVSFVHYKKYAREYKDETSGVSLWEKHKNQSGTGIPK
soluble fraction (log2): -2.11

HMTKTSQEDEDIMRHLDELHTRWPFLGQRKLIEELKDQGIQIGRKRLRRLMKVMGIEAIAPK
soluble fraction (log2): -2.12

HMTKVMVPNVVGMSRGEAEEALRGVKLQVDLKREVSDDPEVKPEEVLRQTPDAQTSVPQGSVVTLYVADKP
soluble fraction (log2): 0.0285

HMTKYEKKIFEIVNASRDHLTAEQVLAALREEYPAVSQATVYNNLKKLTSDGLLRKLTLADSPDRYD
soluble fraction (log2): -0.202

HMTLAAATESREYLADLARRLDAADHGDKTRIKAEAAGLLGWSMATLHARLARDVGWTSGRK
soluble fraction (log2): -0.241

HMTLDEFTDLMNLFKTGHIEQKPVILYGYNYWTSLKSWFEFNNMKFPEMYIDGIINTVDEFKILYNKIF
soluble fraction (log2): -1.38

HMTLGPKQMGEAIIKNLKEKTGKSLEEWSQRILIHELTDKKEIIDFLKNDNGLGHFQALKIFEHLNGK
soluble fraction (log2): -0.281

HMTLGQHIQALRKEAGYSQEALGEALGVTRQSISKWESDQAIPEVDKLVTLSRLFQVPVGVLLQVEQP
soluble fraction (log2): -0.348

HMTLGSVRTVRQVLDDGRLLVADSGGNVTLVRRAGTLAKENVNTGDRVSVDSSVRFALTLIPV
soluble fraction (log2): -0.931

HMTLPEKSKRLFSQDDFWDQIFYRIGEGQSLREVSKYYKIPYTTIHDRIHSDEGIKLKYLEALTS
soluble fraction (log2): -0.882

HMTLPQEPTVLPRPLRVGDTVHIRTLDKDAEVLALPDARGMVAVRAGIINTKVKLTDLTLVEEK
soluble fraction (log2): -0.0272

HMTLRDRDQALEELWGQLADVPMDSETERLLEPFMGWGVGVSRDEIWHWFDRRHSKGIGHLLYS
soluble fraction (log2): -1.42

HMTLSENEKIIVDTIMKYQPLHIDVLNQQVKVDFYTLLGLLTKLEMEGIVLKNPGNIYKINTL
soluble fraction (log2): -0.378

HMTLTPEQQAARRSEIVDIALRLIAENGFQKTSMREIADLAKMGKSSLYDFFKTKDEIAVYAMEKK
soluble fraction (log2): -0.714

HMTMEFGEFLAKLRKERGYYQKEVAAYLNVTVATISNYEKNVHAPDLDTLVKLADFYDVSTDYLLQRT
soluble fraction (log2): -2.7

HMTMGAAEAQALKDEALELYRTGGTQEDVVRAIEMYEQAAEAGNAQAASDLAYLKANGVYETAMNN
soluble fraction (log2): 0.263

HMTMQQGTISRLNHSRGFGFLTTPDGEDLFFHRTNVHETPFARLQVGDRVTYDVQVTPRGTRADKVQLNM
soluble fraction (log2): -0.261

HMTMRFVVADGQNFGSIAQSKALEAVKKGNTEFNYKDVDYTVDIQSDDFYVVYQGRDIMGYASR
soluble fraction (log2): -1.11

HMTMTIEITVNGKTKTLVAELSLADLLRDLGMTKGRIAVELNGHIVPRSQFSSKTISNLDSIEIVQ
soluble fraction (log2): -3.43

HMTNADRYIGQEATVTEKISNELSTGAVRIGGLVWTARTVDNSEAEEGERVTVEAIEGAKLLVKRR
soluble fraction (log2): 0.132

HMTNEPRLTNMGFNKMLIENYKMILEYQDFFIRISTQIGIININGFDLKLGEMTADEVLVTGKIESIDL
soluble fraction (log2): 0.429

From the domain aggregation screens of Martell et al. (2025)
